Measured values published in the supplement of paper PMC10724198.
± gives the standard deviation of the averaged measurements.

The sequences below were run on Saccharomyces cerevisiae (assay: protein stability index of tFT-peptide fusion (C-terminal peptide) (PSI (0-1 scale)); higher = more stable (slower turnover)). Conditions: genetic background: wild type; temperature: 30 C.
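Also: PSI is a weighted mean of sequencing reads over stability bins, variants kept only with over 10 reads, mCherry proximal and sfGFP distal, peptide attached via GGGS linker.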

LPPLPLRSLSSP and LPPLPPLILFPL are within error of each other in protein stability index: 0.746 ± 0.025 for the first, 0.684 ± 0.082 for the second.

Going from LPPLPPRVLFNL to LPPPAAPPPALA, the protein stability index rises from 0.5604 ± 0.00084 to 0.691 ± 0.032.

LPPPHYPHHTAS and LPPPLPPPGPPF are within error of each other in protein stability index: 0.679 ± 0.052 for the first, 0.715 ± 0.013 for the second.

LPPPPHRSRPPP and LPPPPPPPPLLP are within error of each other in protein stability index: 0.66 ± 0.06 for the first, 0.696 ± 0.0022 for the second.

LPPPPPPPPSTP and LPPPPSPESPLS are within error of each other in protein stability index: 0.734 ± 0.0076 for the first, 0.722 ± 0.045 for the second.

Going from LPPPRPHLSFVP to LPPPSPPPPLSP, the protein stability index falls from 0.72 ± 0.012 to 0.621 ± 0.01.

LPPPSPTGTFPP and LPPPTLASTPPP are within error of each other in protein stability index: 0.7 ± 0.095 for the first, 0.77 ± 0.045 for the second.

LPPPVSPLVCLL and LPPSPEPLPPRR are within error of each other in protein stability index: 0.752 ± 0.047 for the first, 0.717 ± 0.059 for the second.

First: LPPSPLLLTSPP
Second: LPPSPPLSPITS
The protein stability index of the first is higher: 0.687 ± 0.016 for the first, 0.55 ± 0.024 for the second.

Going from LPRAPPPPPLLL to LPRPSALLLRSL, the protein stability index falls from 0.757 ± 0.0076 to 0.5 ± 0.12.

Compared with LPRPYRPASTCT, LPRRSSRRQYAA is higher in protein stability index: 0.656 ± 0.016 for the first, 0.751 ± 0.022 for the second.

Going from LPRSASLHVRPH to LPSFPRISPPSI, the protein stability index falls from 0.707 ± 0.023 to 0.656 ± 0.016.

LPSLLYIFPPLS and LPSPPPAPTPGP are within error of each other in protein stability index: 0.6975 ± 0.0068 for the first, 0.681 ± 0.019 for the second.

LPSPRPSPSRVP and LPSTLLLPLASP are within error of each other in protein stability index: 0.676 ± 0.038 for the first, 0.712 ± 0.018 for the second.

Compared with LPTLPLPHRHHL, LPTSTRRGGSHG is lower in protein stability index: 0.742 ± 0.0072 for the first, 0.6911 ± 0.0055 for the second.

LPVCAFGWPVKS and LPVDPPLGGHPT are within error of each other in protein stability index: 0.6566 ± 0.0037 for the first, 0.655 ± 0.03 for the second.

LPWCSTLEIRER and LPYSPPSLTLPR are within error of each other in protein stability index: 0.694 ± 0.011 for the first, 0.666 ± 0.086 for the second.

Compared with LQFSTSMGVLMV, LQHGKSRCAFRK is higher in protein stability index: 0.591 ± 0.01 for the first, 0.652 ± 0.026 for the second.

LQPATGPQRVIS and LQSGALEHLGAS are within error of each other in protein stability index: 0.665 ± 0.03 for the first, 0.716 ± 0.074 for the second.

LQSPGAFFSVSK and LQTLPAPHTPFP are within error of each other in protein stability index: 0.7 ± 0.018 for the first, 0.643 ± 0.039 for the second.

LQWAAGLRTTSP and LRARSSKPPYWL are within error of each other in protein stability index: 0.692 ± 0.071 for the first, 0.737 ± 0.028 for the second.

First: LRAWPILPSRVL
Second: LRCRLCRFFPFL
The protein stability index of the first is lower: 0.641 ± 0.014 for the first, 0.714 ± 0.044 for the second.

LRFGLRCPLYHL and LRFLVVTGSSCS are within error of each other in protein stability index: 0.799 ± 0.11 for the first, 0.665 ± 0.052 for the second.

First: LRGGGGIVVGVV
Second: LRGGSRWVSGGY
The protein stability index of the first is lower: 0.563 ± 0.012 for the first, 0.636 ± 0.026 for the second.

LRGKLGNCLGLL and LRGLIDVKSSLK are within error of each other in protein stability index: 0.733 ± 0.028 for the first, 0.758 ± 0.052 for the second.

LRGLVGEYRRLK and LRGVGGAGVFFG are within error of each other in protein stability index: 0.656 ± 0.057 for the first, 0.675 ± 0.025 for the second.

LRGVSGTLSSSC and LRKSSIQRQKKR are within error of each other in protein stability index: 0.6733 ± 0.0045 for the first, 0.653 ± 0.034 for the second.

Going from LRLAVVSHSCGA to LRLFAGTFSGTP, the protein stability index rises from 0.639 ± 0.023 to 0.698 ± 0.03.

Compared with LRLIPPLTTFDY, LRLLRPVPPRVF is lower in protein stability index: 0.645 ± 0.098 for the first, 0.5405 ± 0.0019 for the second.

Going from LRLPSPLPSPPS to LRLTCRPWGLFF, the protein stability index rises from 0.6283 ± 0.0034 to 0.6377 ± 0.0051.

LRPPLPPPCPPP and LRPPPPPASVCR are within error of each other in protein stability index: 0.599 ± 0.12 for the first, 0.646 ± 0.029 for the second.

LRPPSCCPLEIQ and LRPQKIPASSEA are within error of each other in protein stability index: 0.705 ± 0.076 for the first, 0.678 ± 0.0077 for the second.

LRQRAHRPYFRS and LRSGRCFFVARL are within error of each other in protein stability index: 0.706 ± 0.019 for the first, 0.73 ± 0.068 for the second.

Compared with LRSMLRCPSPLS, LRSPPPPAQPFV is lower in protein stability index: 0.759 ± 0.031 for the first, 0.69 ± 0.0075 for the second.

LRTRKKTIDHHN and LRVGGKRREVMG are within error of each other in protein stability index: 0.663 ± 0.013 for the first, 0.709 ± 0.055 for the second.

LRVYIRAAWVGL and LSALGGVLWWWC are within error of each other in protein stability index: 0.604 ± 0.016 for the first, 0.616 ± 0.026 for the second.

LSARPFPPLMYS and LSASALEFSSPP are within error of each other in protein stability index: 0.6968 ± 0.0025 for the first, 0.699 ± 0.0069 for the second.

LSFAGLPFCPGL and LSFRPPLHPFAL are within error of each other in protein stability index: 0.722 ± 0.13 for the first, 0.695 ± 0.01 for the second.

LSFSPSFLPDSP and LSGSSNRVLFDL are within error of each other in protein stability index: 0.782 ± 0.062 for the first, 0.728 ± 0.053 for the second.

LSHAHLSPTSSA and LSILVGDREGSV are within error of each other in protein stability index: 0.708 ± 0.088 for the first, 0.753 ± 0.13 for the second.

LSLCYCALTSSN and LSLFFSSFLITF are within error of each other in protein stability index: 0.541 ± 0.0097 for the first, 0.628 ± 0.12 for the second.

Going from LSLFISPTACLT to LSLFLAWSLFFL, the protein stability index falls from 0.584 ± 0.01 to 0.487 ± 0.083.

LSLFLPFRFFRS and LSLFSLSPSFSR are within error of each other in protein stability index: 0.699 ± 0.025 for the first, 0.718 ± 0.013 for the second.

Compared with LSLPFLYCFATL, LSLSPLPAPCPP is higher in protein stability index: 0.518 ± 0.0056 for the first, 0.713 ± 0.071 for the second.

Going from LSLTIYVSELFR to LSNGVCSVSFLL, the protein stability index rises from 0.587 ± 0.0084 to 0.672 ± 0.024.

LSPCCFLTSSSF and LSPHPPITHPTP are within error of each other in protein stability index: 0.71 ± 0.033 for the first, 0.683 ± 0.034 for the second.

LSPLIHSPRPFA and LSPPLPARPAAS are within error of each other in protein stability index: 0.752 ± 0.061 for the first, 0.687 ± 0.034 for the second.

LSPPLRFPPPPP and LSPSLPLPNPSP are within error of each other in protein stability index: 0.709 ± 0.073 for the first, 0.729 ± 0.044 for the second.

LSPSMSRLWGSK and LSPSSPHLPFPL are within error of each other in protein stability index: 0.7365 ± 0.0033 for the first, 0.702 ± 0.038 for the second.

LSRGPYRPHVNP and LSRPPPPLLPSV are within error of each other in protein stability index: 0.69 ± 0.051 for the first, 0.749 ± 0.03 for the second.

Compared with LSRSSQPLPPPH, LSSGCSVKLRAQ is lower in protein stability index: 0.7306 ± 0.0021 for the first, 0.67 ± 0.015 for the second.

LSSGPARVMVVL and LSSLHFRFLSAG are within error of each other in protein stability index: 0.608 ± 0.04 for the first, 0.62 ± 0.062 for the second.

LSSLLFSPLPPS and LSSWTYTRFLHG are within error of each other in protein stability index: 0.7593 ± 0.0019 for the first, 0.749 ± 0.085 for the second.

LSTCIMFRSCGG and LSTMPLFPSLHR are within error of each other in protein stability index: 0.693 ± 0.041 for the first, 0.731 ± 0.025 for the second.

First: LSVFDTSLFFSS
Second: LSWSLSSFACEM
The protein stability index of the first is higher: 0.787 ± 0.099 for the first, 0.65 ± 0.014 for the second.

Going from LSYRYPLYPILL to LTACLRRTNTLM, the protein stability index falls from 0.647 ± 0.018 to 0.503 ± 0.0041.

LTASRLAGSGGE and LTATNEARNIDH are within error of each other in protein stability index: 0.69 ± 0.023 for the first, 0.659 ± 0.027 for the second.

Compared with LTCYFSASNVLW, LTDCIHERKGTE is higher in protein stability index: 0.615 ± 0.046 for the first, 0.743 ± 0.017 for the second.

LTFGAPGACGLG and LTGAQPTDPNMR are within error of each other in protein stability index: 0.719 ± 0.024 for the first, 0.697 ± 0.071 for the second.

LTGFYFFFDMTL and LTLCRSPMSLRA are within error of each other in protein stability index: 0.6366 ± 0.0032 for the first, 0.633 ± 0.12 for the second.

First: LTPAPSSCLRSP
Second: LTPLPPPPLRPP
The protein stability index of the first is higher: 0.6857 ± 0.005 for the first, 0.599 ± 0.024 for the second.

LTRRCPVGAWGN and LTSGTVLVLSSL are within error of each other in protein stability index: 0.692 ± 0.012 for the first, 0.683 ± 0.03 for the second.

LTSPPPPPARVP and LTSRPIPFLLRG are within error of each other in protein stability index: 0.739 ± 0.11 for the first, 0.666 ± 0.014 for the second.

Compared with LTSWAKRMGLGD, LTWCGVSEAVIA is lower in protein stability index: 0.731 ± 0.1 for the first, 0.50795 ± 0.00033 for the second.

Going from LTYVSGIASVYG to LVALTSVLSALF, the protein stability index rises from 0.532 ± 0.019 to 0.698 ± 0.069.

Going from LVCGIDSLVRLV to LVCGIGFIYFGF, the protein stability index falls from 0.57 ± 0.029 to 0.492 ± 0.014.

LVCLWQGSSVLI and LVCRRYSGDSSS are within error of each other in protein stability index: 0.671 ± 0.023 for the first, 0.637 ± 0.023 for the second.

Going from LVDSSLTESLDV to LVFCSLLSLFFS, the protein stability index falls from 0.645 ± 0.034 to 0.557 ± 0.012.

LVGSLGVYGVYV and LVICPRVLRDFR are within error of each other in protein stability index: 0.665 ± 0.043 for the first, 0.663 ± 0.05 for the second.

LVILLLQLLSGT and LVLFFRSYCLVV are within error of each other in protein stability index: 0.51758 ± 0.00046 for the first, 0.5142 ± 0.0036 for the second.

LVLKLWNKFFVD and LVLPASSPCLFF are within error of each other in protein stability index: 0.65438 ± 0.00026 for the first, 0.647 ± 0.034 for the second.

LVLSRSGPFSHL and LVLTLIDGSWNV are within error of each other in protein stability index: 0.7 ± 0.073 for the first, 0.7011 ± 0.0056 for the second.

Compared with LVLVSFWWSGPM, LVPPPPPPSPPP is higher in protein stability index: 0.526 ± 0.031 for the first, 0.6457 ± 0.004 for the second.

LVRASDPLSVTI and LVRILSRSVVRT are within error of each other in protein stability index: 0.689 ± 0.073 for the first, 0.697 ± 0.078 for the second.

LVRLNSHRYTSV and LVSCPPPPAPPP are within error of each other in protein stability index: 0.613 ± 0.035 for the first, 0.659 ± 0.06 for the second.

LVSPSSPLLPPP and LVSRLAGAVLGR are within error of each other in protein stability index: 0.685 ± 0.082 for the first, 0.632 ± 0.014 for the second.

Going from LVSVSVGFFLLL to LVSWFWPFSFFA, the protein stability index rises from 0.499 ± 0.047 to 0.661 ± 0.098.

Compared with LVVEYFLCGSIS, LVVWSSIVSGGG is higher in protein stability index: 0.532 ± 0.035 for the first, 0.675 ± 0.05 for the second.

Compared with LVYLQVFSSLLS, LWGGVVGRVRGV is higher in protein stability index: 0.543 ± 0.014 for the first, 0.635 ± 0.037 for the second.

LWGVVVGELGSC and LWISVDEGQLCH are within error of each other in protein stability index: 0.723 ± 0.074 for the first, 0.617 ± 0.042 for the second.
